# Test results as given in patent US20140234211A1 (INVECTORS S R L, published 2014).
# Y(DOTA) = not defined here; Y(DTPA) = not defined here; AhOh = not defined here; Peg27 = L1, H-Peg27-OH
# Biological target: T1, GRP receptor overexpressed on PC-3 cells (UniProt P30550 1-384)
# T1 construct: whole, on cells; also called GRP receptors
# Assay: 111In-labelled liposomes on PC-3 cells overexpressing the GRP receptor; cell-bound radioactivity by gamma counting
# Description: On the day of the experiment, the cell medium is removed, the cells are washed two times with fresh medium (DMEM with 1% of foetal bovine serum, pH 7.4) and incubated for at least one hour at 37° C. The cells were incubated (in triplicate) with 100 μL of liposomes labelled with indium 111/natural indium at various times (30 mins, 1 hour, 2 hours, 4 hours). The final volume is 1 mL and the final liposomal concentration is 2*10⁻⁴M. At the end of the incubation, the cell medium, containing the unbound radioactivity, is separated from the cells.
# The radioactivity bound to the cells was recovered by tryptic digestion after two rapid washes with […] PBS followed by 1 hour of incubation and measured by gamma counting. The difference in binding of the liposomes containing H-L₁-Y(C)-L₂-P with the bombesin peptide, compared to when the peptide is absent, is clearly visible in FIG. 2. Experiments were conducted with various type (1) monomers in the liposomal formulation, varying the peptide sequences and the chelating agent, such as those described in examples 1a-1o. No substantial differences are found in the target selective binding properties. For example, in FIG. 2 the result for the liposomes containing monomer 1a is reported.
# T1 sequence (P30550 whole entry): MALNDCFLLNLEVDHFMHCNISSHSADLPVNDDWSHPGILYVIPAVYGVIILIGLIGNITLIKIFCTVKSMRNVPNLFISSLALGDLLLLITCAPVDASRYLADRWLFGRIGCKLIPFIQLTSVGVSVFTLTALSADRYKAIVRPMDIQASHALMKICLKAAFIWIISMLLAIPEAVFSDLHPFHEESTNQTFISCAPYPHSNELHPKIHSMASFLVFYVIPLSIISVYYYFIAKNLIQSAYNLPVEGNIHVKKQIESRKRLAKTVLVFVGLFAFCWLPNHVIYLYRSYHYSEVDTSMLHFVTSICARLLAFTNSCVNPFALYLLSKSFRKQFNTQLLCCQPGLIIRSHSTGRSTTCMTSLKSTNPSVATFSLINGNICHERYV
row,binding result,Binder
1,binds,"QWAVGHLX (not fully specified; Nle at position 8; C-terminal amide (NH2); N-terminal amino group amide-linked to spacer L2 (H-AhOh-OH), Chelating agent DOTA; Tested in 111In-labelled liposomes)"
2,binds,"{Peg27-Y(DTPA)-AhOh}-QWAVGHLM-NH2 (reading uncertain; also: in liposomes, Tested in 111In-labelled liposomes)"
3,binds,"{Peg27-Y(DOTA)-AhOh}-QWAVGHLM-NH2 (reading uncertain; also: in liposomes, Chelating agent DOTA; Tested in 111In-labelled liposomes)"
4,binds,"QWAVGHLX (not fully specified; Nle at position 8; C-terminal amide (NH2); N-terminal amino group amide-linked to spacer L2 (H-AhOh-OH) of the lipid/DTPA monomer, also called monomer 1a)"
